Test results: PMC11069190

Columns and labels:
Experiment in all cases: EMSA
[1] = molecular target: T1, Rap1 (Saccharomyces cerevisiae) (UniProt P11938); details: 10.7 mM HEPES-KOH pH 7.9, 4 mM Tris-Cl, 80.9 mM NaCl, 19.1 mM KCl, 5.4 mM MgCl2, 0.2 mM Mg acetate, 0.05% NP-40, 10% glycerol, 0.2 uM ZnCl2, 0.2 mM EDTA, 0.4 mM
T1 sequence: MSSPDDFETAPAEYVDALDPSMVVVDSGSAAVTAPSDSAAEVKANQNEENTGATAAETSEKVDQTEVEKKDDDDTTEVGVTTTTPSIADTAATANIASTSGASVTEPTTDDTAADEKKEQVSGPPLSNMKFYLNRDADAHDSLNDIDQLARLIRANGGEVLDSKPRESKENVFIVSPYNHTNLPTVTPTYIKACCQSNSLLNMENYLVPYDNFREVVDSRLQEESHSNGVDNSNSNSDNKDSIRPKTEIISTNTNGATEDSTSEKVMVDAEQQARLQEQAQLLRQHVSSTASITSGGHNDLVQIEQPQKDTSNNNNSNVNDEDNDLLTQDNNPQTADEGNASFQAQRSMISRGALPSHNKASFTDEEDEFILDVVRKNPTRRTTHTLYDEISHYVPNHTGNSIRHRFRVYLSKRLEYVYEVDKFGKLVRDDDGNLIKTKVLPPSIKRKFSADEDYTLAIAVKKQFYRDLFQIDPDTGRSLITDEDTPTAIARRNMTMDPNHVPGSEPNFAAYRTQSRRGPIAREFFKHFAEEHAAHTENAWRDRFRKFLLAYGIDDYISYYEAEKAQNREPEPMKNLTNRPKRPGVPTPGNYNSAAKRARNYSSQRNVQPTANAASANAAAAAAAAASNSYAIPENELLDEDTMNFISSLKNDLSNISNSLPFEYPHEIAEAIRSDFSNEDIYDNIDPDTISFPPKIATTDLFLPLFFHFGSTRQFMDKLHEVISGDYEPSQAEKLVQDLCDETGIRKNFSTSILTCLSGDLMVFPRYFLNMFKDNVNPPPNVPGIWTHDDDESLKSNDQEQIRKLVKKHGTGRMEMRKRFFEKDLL

[2] = molecular target: T2, Reb1 (Saccharomyces cerevisiae) (UniProt P21538); details: apparent Kd on reconstituted nucleosome; 10.7 mM HEPES-KOH pH 7.9, 4 mM Tris-Cl, 80.9 mM NaCl, 19.1 mM KCl, 5.4 mM MgCl2, 0.2 mM Mg acetate, 0.05% NP-40, 10% glycerol, 0.2 uM ZnCl2, 0.2 mM EDTA, 0.4 mM
T2 sequence: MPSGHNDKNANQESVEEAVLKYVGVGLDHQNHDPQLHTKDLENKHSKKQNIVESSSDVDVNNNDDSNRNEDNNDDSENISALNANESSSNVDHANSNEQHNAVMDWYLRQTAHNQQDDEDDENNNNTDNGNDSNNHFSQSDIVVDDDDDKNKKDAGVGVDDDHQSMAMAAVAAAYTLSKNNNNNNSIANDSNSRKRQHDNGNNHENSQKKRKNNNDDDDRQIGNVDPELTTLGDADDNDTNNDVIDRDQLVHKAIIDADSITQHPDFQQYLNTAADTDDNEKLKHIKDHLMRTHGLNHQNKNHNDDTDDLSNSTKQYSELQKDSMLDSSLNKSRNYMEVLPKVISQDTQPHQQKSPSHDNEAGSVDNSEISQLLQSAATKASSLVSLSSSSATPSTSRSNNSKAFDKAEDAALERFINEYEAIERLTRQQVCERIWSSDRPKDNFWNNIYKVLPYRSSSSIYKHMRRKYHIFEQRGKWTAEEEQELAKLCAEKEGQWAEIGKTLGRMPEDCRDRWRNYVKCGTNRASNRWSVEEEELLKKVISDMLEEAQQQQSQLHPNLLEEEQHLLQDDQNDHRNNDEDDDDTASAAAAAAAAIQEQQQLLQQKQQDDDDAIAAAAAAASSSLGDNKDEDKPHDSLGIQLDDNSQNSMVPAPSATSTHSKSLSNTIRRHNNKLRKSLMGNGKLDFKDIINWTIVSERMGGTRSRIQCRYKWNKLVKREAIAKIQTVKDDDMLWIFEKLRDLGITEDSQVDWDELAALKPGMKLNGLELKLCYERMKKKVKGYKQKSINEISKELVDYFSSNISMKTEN

[3] = molecular target: Cbf1 (Saccharomyces cerevisiae) (UniProt P17106); details: apparent Kd on reconstituted nucleosome; 10.7 mM HEPES-KOH pH 7.9, 4 mM Tris-Cl, 80.9 mM NaCl, 19.1 mM KCl, 5.4 mM MgCl2, 0.2 mM Mg acetate, 0.05% NP-40, 10% glycerol, 0.2 uM ZnCl2, 0.2 mM EDTA, 0.4 mM
UniProt P17106, sequence (P17106 whole entry): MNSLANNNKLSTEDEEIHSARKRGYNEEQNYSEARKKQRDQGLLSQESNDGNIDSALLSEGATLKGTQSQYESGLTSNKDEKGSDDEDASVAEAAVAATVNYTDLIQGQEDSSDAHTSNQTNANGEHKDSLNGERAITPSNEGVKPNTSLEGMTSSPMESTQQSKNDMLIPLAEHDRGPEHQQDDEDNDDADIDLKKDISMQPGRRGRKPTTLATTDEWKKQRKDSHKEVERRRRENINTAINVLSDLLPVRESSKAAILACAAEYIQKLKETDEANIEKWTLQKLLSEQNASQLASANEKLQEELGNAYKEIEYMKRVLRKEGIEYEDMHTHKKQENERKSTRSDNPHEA

[4] = molecular target: T3, Abf1 (Saccharomyces cerevisiae) (UniProt P14164); details: apparent Kd on reconstituted nucleosome; 10.7 mM HEPES-KOH pH 7.9, 4 mM Tris-Cl, 80.9 mM NaCl, 19.1 mM KCl, 5.4 mM MgCl2, 0.2 mM Mg acetate, 0.05% NP-40, 10% glycerol, 0.2 uM ZnCl2, 0.2 mM EDTA, 0.4 mM
T3 sequence: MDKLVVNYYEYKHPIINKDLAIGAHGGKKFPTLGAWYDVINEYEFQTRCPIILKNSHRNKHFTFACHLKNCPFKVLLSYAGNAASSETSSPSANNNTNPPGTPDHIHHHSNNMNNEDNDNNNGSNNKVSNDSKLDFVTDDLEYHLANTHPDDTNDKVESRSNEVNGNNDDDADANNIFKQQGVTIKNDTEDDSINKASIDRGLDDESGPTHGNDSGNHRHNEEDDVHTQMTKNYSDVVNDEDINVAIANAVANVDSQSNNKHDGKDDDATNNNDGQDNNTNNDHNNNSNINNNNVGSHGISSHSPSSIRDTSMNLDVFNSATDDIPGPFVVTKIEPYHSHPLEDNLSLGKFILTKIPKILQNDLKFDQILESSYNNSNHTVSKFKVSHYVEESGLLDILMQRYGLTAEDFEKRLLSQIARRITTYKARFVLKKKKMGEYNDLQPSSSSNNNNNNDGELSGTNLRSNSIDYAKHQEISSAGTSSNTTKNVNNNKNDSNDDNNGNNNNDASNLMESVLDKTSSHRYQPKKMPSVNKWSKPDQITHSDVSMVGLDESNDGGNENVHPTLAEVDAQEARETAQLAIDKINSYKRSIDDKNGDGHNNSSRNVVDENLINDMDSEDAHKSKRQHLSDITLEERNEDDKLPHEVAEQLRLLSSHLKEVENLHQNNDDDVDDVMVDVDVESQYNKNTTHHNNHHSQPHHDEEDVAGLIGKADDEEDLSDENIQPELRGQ

GGTCGCTGTTCAATACATGCACAGGATGTATATATCTGACACGTGCCTGGAGACTAGGGAGTAATCCCCTTGGCGGTTAAAACGCGGGGGACAGCGCGTACGTGCGTTTAAGCGGTGCTAGAGCTGTCTACGACCAATTGAGCGGCCTCGGCACCGGGATTCTCCAGGGCGGCCGCTACACCCATACATTTCCATGGTGATGACCGCGGACCTGCAGGCATGCAAGC (double strand) [20-NC-60Rap1bs nucleosome]
Kd [1]: 0.8 nM

GGTCGCTGTTCAATACATGCACAGGATGTATATATCTGACACGTGCCTGGAGACTAGGGAGTAATCCCCTTGGCGGTTAAAACGCGGGGGACAGCGCGTACGTGCGTTTAAGCGGTGCTAGAGCTGTCTACGACCAATTGAGCGGCCTCGGCACCGGGATTCTCCAGGGCGGCCGCTCGGGTAAAGCATCACCATGGTGATGACCGCGGACCTGCAGGCATGCAAGC (double strand) [20-NC-60Reb1bs nucleosome]
Kd [2]: 4.9 nM

GGTCGCTGTTCAATACATGCACAGGATGTATATATCTGACACGTGCCTGGAGACTAGGGAGTAATCCCCTTGGCGGTTAAAACGCGGGGGACAGCGCGTACGTGCGTTTAAGCGGTGCTAGAGCTGTCTACGACCAATTGAGCGGCCTCGGCACCGGGATTCTCCAGGGCGGCCGCTGTCACGTGGGCTAGTAATGGTGATGACCGCGGACCTGCAGGCATGCAAGC (double strand) [20-NC-60Cbf1bs nucleosome]
Kd [3]: 7.8 nM

GGTCGCTGTTCAATACATGCACAGGATGTATATATCTGACACGTGCCTGGAGACTAGGGAGTAATCCCCTTGGCGGTTAAAACGCGGGGGACAGCGCGTACGTGCGTTTAAGCGGTGCTAGAGCTGTCTACGACCAATTGAGCGGCCTCGGCACCGGGATTCTCCAGGGCGGCCGCTTATCGTATTGCATGATATGGTGATGACCGCGGACCTGCAGGCATGCAAGC (double strand) [20-NC-60Abf1bs nucleosome]
Kd [4]: 1 nM
